Test results from patent US8815802 (Novo Nordisk, dated 2014).
Numbered stars: 1 amine (or outer) side, 2 acyl side, 3 side chain; on linkers, the order of the positions; unused ones are H or OH. Square brackets hold non-standard residues; d marks the D form. Side chains are listed from the residue outwards. Ends that are not written are not given here. * marks the point of attachment. Malonyl(2,2-Me2,histaminyl) = CC(C)(C(=O)NCCc1cnc[nH]1)C(=O)*; C20 diacid = O=C(O)CCCCCCCCCCCCCCCCCCC(=O)*; C18 diacid = O=C(O)CCCCCCCCCCCCCCCCC(=O)*; C16 diacid = O=C(O)CCCCCCCCCCCCCCC(=O)*; γGlu = O=C(O)[C@H](CCC(=O)[*:2])N[*:1]; Desaminohistidyl = O=C(CCc1c[nH]cn1)*; Palmitoyl = CCCCCCCCCCCCCCCC(=O)*; Trx = NC[C@H]1CC[C@H](C(=O)O)CC1; AEEA = NCCOCCOCC(=O)O; Aib = CC(C)(N)C(=O)O; Inp = O=C(O)C1CCNCC1

Key:
human GLP-1 receptor [1] = biological target: T1, human GLP-1 receptor (human, UniProt P43220 24-463); experiment: SPA, displacement of 125I-GLP-1(7-36)NH2 from hGLP-1R membranes, 0.005% HSA
T1 construct: whole, on cells; Used as purified plasma membranes of the transfected hamster cell line, not as intact cells; also called hGLP-1
Method: (§1) 25 ul (micro liter) of test compounds were added to Optiplate. HSA ("high albumin" experiment containing 2% HSA), or buffer ("low albumin" experiment containing 0.005% HSA), was added (50 ul). 5-10 ug protein/sample was added (50 ul) corresponding to 0.1-0.2 mg protein/ml (to be preferably optimised for each membrane preparation). SPA-particles (Wheatgerm agglutinin SPA beads, Perkin Elmer, #RPNQ0001) were added in an amount of 0.5 mg/well (50 ul). […] The plates were sealed with PlateSealer and incubated for 120 minutes at 30° C. while shaking. The plates were centrifuged (1500 rpm, 10 min) and counted in Topcounter.

human GLP-1 receptor [2] = biological target: T1, human GLP-1 receptor; experiment: SPA, displacement of 125I-GLP-1(7-36)NH2 from hGLP-1R membranes, 2.0% HSA
Method: as §1

{Malonyl(2,2-Me2,histaminyl)}-EGTFTSDVSSYLEGQAAK([AEEA-AEEA-γGlu-C18 diacid])EFIAHLVQGRG (also called Chem. 37) was tested, and the IC50 (human GLP-1 receptor [1]) was < 600 nM and the IC50 (human GLP-1 receptor [2]) was ≤ 1000 nM.

HAEGTFTSDVSSYLEGQAAK([γGlu-Palmitoyl])EFIAHLVQGRG [N^ε26-[(4S)-4-carboxy-4-(hexadecanoylamino)butanoyl]-[His^31,Gln^34]-GLP-1-(7-37)-peptide] was tested, and the IC50 (human GLP-1 receptor [1]) was < 600 nM and the IC50 (human GLP-1 receptor [2]) was ≤ 1000 nM.

With H[dA]EGTFTSDVSSYLEGQAAK([AEEA-AEEA-γGlu-C18 diacid])EFIAHLVQGRG the IC50 (human GLP-1 receptor [1]) was < 600 nM and the IC50 (human GLP-1 receptor [2]) was ≤ 1000 nM.

In the case of [Desaminohistidyl]AEGTFTSDVSSYLEEQAAREFIAHLVQGRK([AEEA-AEEA-γ‑D‑Glu-Trx-C20 diacid]), the IC50 (human GLP-1 receptor [1]) is reported as < 600 nM and the IC50 (human GLP-1 receptor [2]) is reported as ≤ 1000 nM.

In the case of HAEGTFTSDVSSYLEGQAAK([AEEA-AEEA-γGlu-C18 diacid])EFIAHLVQGRG, the IC50 (human GLP-1 receptor [1]) is reported as < 600 nM and the IC50 (human GLP-1 receptor [2]) is reported as ≤ 1000 nM.

In the case of HAEGTFTSDVSSYLEK([AEEA-AEEA-γGlu-C18 diacid])QAAREFIAHLVQGRG, the IC50 (human GLP-1 receptor [1]) is reported as < 600 nM and the IC50 (human GLP-1 receptor [2]) is reported as ≤ 1000 nM.

In the case of HSEGTFTSDVSSYLEGQAAK([AEEA-AEEA-γGlu-C18 diacid])EFIAHLVQGRG, the IC50 (human GLP-1 receptor [1]) is reported as < 600 nM and the IC50 (human GLP-1 receptor [2]) is reported as ≤ 1000 nM.

For HAEGTK([AEEA-AEEA-C18 diacid])TSDVSSYLEEQAAREFIAHLVQGRG, the IC50 (human GLP-1 receptor [1]) was < 600 nM and the IC50 (human GLP-1 receptor [2]) was ≤ 1000 nM.

In the case of HAEGTK([AEEA-AEEA-γGlu-C18 diacid])TSDVSSYLEEQAAREFIAHLVQGRG, the IC50 (human GLP-1 receptor [1]) is reported as < 600 nM and the IC50 (human GLP-1 receptor [2]) is reported as ≤ 1000 nM.

With HGEGTFTSDVSSYLEGQAAK([AEEA-AEEA-γGlu-C18 diacid])EFIAHLVQGRG the IC50 (human GLP-1 receptor [1]) was < 600 nM and the IC50 (human GLP-1 receptor [2]) was ≤ 1000 nM.

HAEGTFTSDVSSYLEEQK([AEEA-AEEA-γGlu-C18 diacid])AREFIAHLVQGRG was tested, and the IC50 (human GLP-1 receptor [1]) was < 600 nM and the IC50 (human GLP-1 receptor [2]) was ≤ 1000 nM.

B1: N^8 3H-Imidazol-4-yl-acetyl, N^ε28-[2-(2-{2-[2-(2-{2-[(S)-4-Carboxy-4-(17-carboxyheptadecanoylamino)butyrylamino]ethoxy}ethoxy)acetylamino] … (peptide)
peptide: AEGTFTSDVSSYLEGQAAK([AEEA-AEEA-γGlu-C18 diacid])EFIAHLVQGRG
modifications: not fully specified (N-terminus); printed as N^8 3H-Imidazol-4-yl-acetyl, N^ε28-[2-(2-{2-[2-(2-{2-[(S)-4-Carboxy-4-(17-carboxyheptadecanoylamino)butyrylamino]ethoxy}ethoxy)acetylamino] ethoxy}ethoxy)acetyl][His^31,Gln^34]GLP-1(8-37)-peptide
B1 was tested, and the IC50 (human GLP-1 receptor [1]) was < 600 nM and the IC50 (human GLP-1 receptor [2]) was ≤ 1000 nM.

B2: [Imp^7,Glu^22,Arg^26,His^31,Gln^34,Lys^37]-GLP-1-(7-37)-peptide (peptide)
peptide: [Desaminohistidyl]AEGTFTSDVSSYLEEQAAREFIAHLVQGRK
notes: unacylated analogue; also called Chem. 40
B2 was tested, and the IC50 (human GLP-1 receptor [1]) was < 600 nM and the IC50 (human GLP-1 receptor [2]) was ≤ 1000 nM.

With HAEGTFTSDVSSYLEGQAAK([γGlu-C16 diacid])EFIAHLVQGRG [N^ε26-[(4S)-4-carboxy-4-(15-carboxypentadecanoylamino)butanoyl]-[His^31,Gln^34]-GLP-1-(7-37)-peptide] the IC50 (human GLP-1 receptor [1]) was < 600 nM and the IC50 (human GLP-1 receptor [2]) was ≤ 1000 nM.

B3: [Aib^8,His^31,Gln^34]GLP-1(7-37)-peptide (peptide)
peptide: HXEGTFTSDVSSYLEGQAAKEFIAHLVQGRG
modifications: Aib8 (GLP-1(7-37) numbering)
notes: unacylated analogue; also called (8Aib, 31H, 34Q)
With B3 the IC50 (human GLP-1 receptor [1]) was < 600 nM and the IC50 (human GLP-1 receptor [2]) was ≤ 1000 nM.

HXEGTFTSDVSSYLEGQAAKEFIAHLVQGRG (Aib8; Lys26 N-epsilon-acylated (side chain as in name); GLP-1(7-37) numbering) [N^ε26-[2-(2-{2-[2-(2-{2-[(S)-4-Carboxy-4-(15-carboxypentadecanoylamino)butyrylamino]ethoxy}ethoxy)acetylamino]ethoxy}ethoxy)acetyl][Aib^8,His^31,Gln^34]GLP-1(7- …, listing 1 of 5 here] was tested, and the IC50 (human GLP-1 receptor [1]) was < 600 nM and the IC50 (human GLP-1 receptor [2]) was ≤ 1000 nM.

For HXEGTFTSDVSSYLEGQAAKEFIAHLVQGRG (Aib8; Lys26 N-epsilon-acylated (side chain as in name); GLP-1(7-37) numbering) [N^ε26[2-(2-{2-[(S)-4-Carboxy-4-(2-{2-[2-(17-carboxy-heptadecanoylamino)ethoxy]ethoxy}acetylamino)butyryl amino]ethoxy}ethoxy)acetyl] …, listing 2 of 5 here], the IC50 (human GLP-1 receptor [1]) was < 600 nM and the IC50 (human GLP-1 receptor [2]) was ≤ 1000 nM.

HXEGTFTSDVSSYLEGQAAKEFIAHLVQGRG (Aib8; Lys26 N-epsilon-acylated (side chain as in name); GLP-1(7-37) numbering) [N^ε26 [2-(2-(2-{2-[(S)-4-Carboxy-4-(15-carboxypentadecanoylamino)butyrylamino]ethoxy}ethoxy)acetyl][Aib^8,His^31,Gln^34]GLP-1(7-37)-peptide, listing 3 of 5 here] was tested, and the IC50 (human GLP-1 receptor [1]) was < 600 nM and the IC50 (human GLP-1 receptor [2]) was ≤ 1000 nM.

For HXEGTFTSDVSSYLEGQAAKEFIAHLVQGRG (Aib8; Lys26 N-epsilon-acylated (side chain as in name); GLP-1(7-37) numbering) [N^ε26 [(S)-4-Carboxy-4-(2-{2-[2-(2-{2-[2-(17-carboxy-heptadecanoylamino)ethoxy]ethoxy}acetylamino)ethoxy]-ethoxy}acetylamino)butyryl] …, listing 4 of 5 here], the IC50 (human GLP-1 receptor [1]) was < 600 nM and the IC50 (human GLP-1 receptor [2]) was ≤ 1000 nM.

In the case of HXEGTFTSDVSSYLEGQAAKEFIAHLVQGRG (Aib8; Lys26 N-epsilon-acylated (side chain as in name); GLP-1(7-37) numbering) [N^ε26 [(S)-4-Carboxy-4-(15-carboxypentadecanoylamino)butyryl][Aib^8,His^31,Gln^34]GLP-1(7-37)-peptide, listing 5 of 5 here], the IC50 (human GLP-1 receptor [1]) is reported as < 600 nM and the IC50 (human GLP-1 receptor [2]) is reported as ≤ 1000 nM.

With H[Aib]EGTFTSDVSSYLEGQAIRK([AEEA-AEEA-γGlu-C18 diacid])FIAHLVQGRG the IC50 (human GLP-1 receptor [1]) was < 600 nM and the IC50 (human GLP-1 receptor [2]) was ≤ 1000 nM.

In the case of H[Aib]EGTFTSDVSSYLEEQAARK([AEEA-AEEA-γGlu-C18 diacid])FIAHLVQGRG, the IC50 (human GLP-1 receptor [1]) is reported as < 600 nM and the IC50 (human GLP-1 receptor [2]) is reported as ≤ 1000 nM.

In the case of H[Aib]EGTK([AEEA-AEEA-γGlu-C18 diacid])TSDVSSYLEGQAAKEFIAHLVQGRG, the IC50 (human GLP-1 receptor [1]) is reported as < 600 nM and the IC50 (human GLP-1 receptor [2]) is reported as ≤ 1000 nM.

H[Aib]EGTK([AEEA-AEEA-C18 diacid])TSDVSSYLEEQAAREFIAHLVQGRG was tested, and the IC50 (human GLP-1 receptor [1]) was < 600 nM and the IC50 (human GLP-1 receptor [2]) was ≤ 1000 nM.

For H[Aib]EGTFTSDK([AEEA-AEEA-γGlu-C18 diacid])SSYLEEQAAREFIAHLVQGRG, the IC50 (human GLP-1 receptor [1]) was < 600 nM and the IC50 (human GLP-1 receptor [2]) was ≤ 1000 nM.

H[Aib]EGTK([AEEA-AEEA-γGlu-C18 diacid])TSDVSSYLEEQAAREFIAHLVQGRG was tested, and the IC50 (human GLP-1 receptor [1]) was < 600 nM and the IC50 (human GLP-1 receptor [2]) was ≤ 1000 nM.

For H[Aib]EGTFTSDVSSYLEGQAARK([AEEA-AEEA-γGlu-C18 diacid])FIAHLVQGRG, the IC50 (human GLP-1 receptor [1]) was < 600 nM and the IC50 (human GLP-1 receptor [2]) was ≤ 1000 nM.

H[Aib]EGTFTSDVSSYLEEQAARK([AEEA-AEEA-γGlu-C18 diacid])FIEHLVQGRP was tested, and the IC50 (human GLP-1 receptor [1]) was < 600 nM and the IC50 (human GLP-1 receptor [2]) was ≤ 1000 nM.

In the case of H[Aib]EGTFTSDVSSYLEEQK([AEEA-AEEA-γGlu-C18 diacid])AREFIAHLVQGRG, the IC50 (human GLP-1 receptor [1]) is reported as < 600 nM and the IC50 (human GLP-1 receptor [2]) is reported as ≤ 1000 nM.

For H[Aib]EGTFTSDVSK([AEEA-AEEA-γGlu-Inp-C20 diacid])YLEEQAAHEFIAHLVQGRG, the IC50 (human GLP-1 receptor [1]) was < 600 nM and the IC50 (human GLP-1 receptor [2]) was ≤ 1000 nM.

In the case of H[Aib]EGTFTSDVSK([AEEA-AEEA-γGlu-C18 diacid])YLEEQAAREFIAHLVQGRG, the IC50 (human GLP-1 receptor [1]) is reported as < 600 nM and the IC50 (human GLP-1 receptor [2]) is reported as ≤ 1000 nM.

B4: N^ε36-[2-[2-[2-(17-carboxyheptadecanoylamino)ethoxy]ethoxy]acetyl]-[Aib^8,Glu^30,His^31,Gln^34,Lys^36]-GLP-1-(7-37)-peptidyl-Glu amide (peptide)
peptide: HXEGTFTSDVSSYLEGQAAKEFIEHLVQGKGE
HELM: PEPTIDE1{H.[Aib].E.G.T.F.T.S.D.V.S.S.Y.L.E.G.Q.A.A.K.E.F.I.E.H.L.V.Q.G.K.G.E.[am]}|PEPTIDE2{[O=C(O)CCCCCCCCCCCCCCCCC(=O)[*:2]].[O=C(COCCOCCN[*:1])[*:2]]}$PEPTIDE1,PEPTIDE2,30:R3-2:R2$$$V2.0; N-terminus assumed
SMILES: CC[C@H](C)[C@H](NC(=O)[C@H](Cc1ccccc1)NC(=O)[C@H](CCC(=O)O)NC(=O)[C@H](CCCCN)NC(=O)[C@H](C)NC(=O)[C@H](C)NC(=O)[C@H](CCC(N)=O)NC(=O)CNC(=O)[C@H](CCC(=O)O)NC(=O)[C@H](CC(C)C)NC(=O)[C@H](Cc1ccc(O)cc1)NC(=O)[C@H](CO)NC(=O)[C@H](CO)NC(=O)[C@@H](NC(=O)[C@H](CC(=O)O)NC(=O)[C@H](CO)NC(=O)[C@@H](NC(=O)[C@H](Cc1ccccc1)NC(=O)[C@@H](NC(=O)CNC(=O)[C@H](CCC(=O)O)NC(=O)C(C)(C)NC(=O)[C@@H](N)Cc1c[nH]cn1)[C@@H](C)O)[C@@H](C)O)C(C)C)C(=O)N[C@@H](CCC(=O)O)C(=O)N[C@@H](Cc1c[nH]cn1)C(=O)N[C@@H](CC(C)C)C(=O)N[C@H](C(=O)N[C@@H](CCC(N)=O)C(=O)NCC(=O)N[C@@H](CCCCNC(=O)COCCOCCNC(=O)CCCCCCCCCCCCCCCCC(=O)O)C(=O)NCC(=O)N[C@@H](CCC(=O)O)C(N)=O)C(C)C
In the case of B4, the IC50 (human GLP-1 receptor [1]) is reported as < 600 nM and the IC50 (human GLP-1 receptor [2]) is reported as ≤ 1000 nM.
